Test [1] addresses C-Raf pS233 peptide (Homo sapiens) (UniProt P04049). As to conditions: cited from earlier work.
Test [2] concerns the target C-Raf pS259 peptide (Homo sapiens) (UniProt P04049). As to conditions: cited from earlier work.
Test [3] addresses C-Raf pS233/pS259 peptide (Homo sapiens) (UniProt P04049). As to conditions: cited from earlier work.
The target in test [4] is T1, human 14-3-3ζ protein (Homo sapiens, UniProt P63104).
T1 construct: hexa-histidine (His6, from pQE30 vector) (N); made in house; host or cells: E. coli M15
T1 sequence (P63104 1-245): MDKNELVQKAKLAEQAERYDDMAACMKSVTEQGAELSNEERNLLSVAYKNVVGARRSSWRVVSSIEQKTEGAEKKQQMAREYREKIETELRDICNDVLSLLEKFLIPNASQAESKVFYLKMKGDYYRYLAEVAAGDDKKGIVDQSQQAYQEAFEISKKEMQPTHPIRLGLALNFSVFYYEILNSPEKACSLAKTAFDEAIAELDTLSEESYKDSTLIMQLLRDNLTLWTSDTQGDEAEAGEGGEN
Put plainly: Isothermal titration calorimetry (ITC) of peptide binding to 14-3-3ζ. From the text:
Human 14-3-3ζ full length sequence was PCR amplified using pcDNA3 14-3-3ζ as a template with forward primer (5´-[…]-3´) and reverse primer (5´-[…]-3´). The PCR amplified product was digested with BamH1 and Pst1 and cloned into pQE30 vector. This vector contains N-terminal hexa- histidine tag suitable for affinity purification. The cloned fragment was confirmed by automated DNA sequencer, Applied Biosystem 3130×I 96 capillary DNA Analyzer.
E. coli M15 cells were transformed with this construct and grown at 37°C in LB medium containing ampicillin and kanamycin. The cells were grown till 0.6 (O.D.600nm) and the expression of the protein was induced with 0.5 mM IPTG for 3 hours. The cells were harvested and stored at -70°C. The cells were subsequently resuspended in lysis buffer (10 mM NaH2PO4, 100 mM NaCl, pH7.0, 1 mM PMSF (Sigma, St. Louis, MO), 1X Halt Protease inhibitor cocktail (ThermoFisher Scientific, Waltham, MA) and lysed by passing through the French press at 20,000 psi. Cell lysate was centrifuged at 20,000×g for 15 minutes at 4°C. The supernatant was collected and again centrifuged at 100,000×g for 1 hour. Cell homogenate was applied onto TALON affinity resin (Clontech, Mountain View, CA) pre-equilibrated with lysis buffer. Resin was washed with five volumes of lysis buffer containing 20 mM imidazole. Bound protein was eluted with 150 mM imidazole containing lysis buffer. Imidazole was then removed by dialysis; the buffer was exchanged with 10 mM NaH2PO4, 100 mM NaCl, pH 6.1 and the protein was concentrated in sucrose bed. Commercially synthesized and HPLC-purified (> 95%) KH16p and KH16 peptides were purchased from GL Biochem (Shanghai, China) and used as received.
ITC technique was employed to study thermodynamics of KH16p and KH16 peptides interactions with 14-3-3ζ protein with the help of VP-ITC micro-calorimeter in high feedback mode. The peptides were dissolved in the same dialysis buffer of 14-3-3ζ protein (i.e., 10 mM Na2HPO4 buffer containing 100 mM NaCl, pH 6.1). Sample cell with 50 μM 14-3-3ζ protein was titrated against 1 mM peptide in a syringe with 300 rpm stirring speed with an initial delay of 60 sec. The cell temperature was kept at 298 K and 10 μcal/s of reference power as applied to maintain a flat baseline. A total of 17 injections of 1 mM KH16p/KH16 were performed, where the initial injection was of 0.4 μl and the final was 2.0 μl, while the remaining 15 injections were 2.5 μl each. Each injection was over a period of 0.8 sec with a spacing of 150 sec and filter time of 5 sec. An equivalent control experiment to subtract the heat of dilution of the peptides in buffer was performed (i.e., the same concentration of peptide was injected into the buffer solution keeping same experimental parameters). Results obtained were plotted using MicroCal Origin 7.0 software. In order to determine the thermodynamic parameters (i.e., association constant K A and enthalpy of reaction ΔH), the single-site binding model was used. Other thermodynamic parameters such as the free energy of binding (ΔG) and entropy (ΔS) were calculated using Eqs (2) and (3), respectively: ΔG=−RTlnKA (2) ΔG=ΔH−TΔS (3)
(In general: Isothermal titration calorimetry measures the heat released or taken up as one component is titrated into another.)

Test [5] deals with T1, human 14-3-3ζ protein. The test is described as follows: STD NMR with 14-3-3ζ. In kind it is binding. As to conditions: 1 mM peptide, 2 μM 14-3-3ζ (500:1), D2O, 10 mM Na2HPO4, 100 mM NaCl, pH 6.1, 288 K. As for the experimental part:
Saturation transfer difference (STD) NMR experiments were carried out at 288 K using standard STD pulse sequences, with WATERGATE 3-9-19 water suppression method. Briefly, 1 mM of KH16p/KH16 peptide in 10 mM Na2HPO4 buffer (pH 6.1) with 100 mM NaCl was lyophilized and resuspended in an equal volume of D2O, and 2 μM 14-3-3ζ proteins was added to it. A train of 40 selective Gaussian-shaped pulses (49 ms each) with an interval period of 1 ms was used to saturate protein resonance for a total of 2 sec saturation time. During the STD NMR experiment, on- and off-resonance frequencies were set at -1 ppm and 40 ppm, respectively. Subtraction of off-resonance spectrum from the on-resonance spectra to yield signals appearing due to saturation transfer from protein to ligand was achieved using phase cycling. The one-dimensional STD spectra were acquired with 1024 scans with 16 dummy scans using a sweep width of 12 ppm. An exponential line broadening function of 3 Hz was applied to the spectral data before Fourier transformation. Similar STD experiments were performed on the peptide KH16p or KH16 in the absence of 14-3-3ζ protein as a control.

For another test, the target named is T2, 14-3-3ζ (Homo sapiens, UniProt P63104).
T2 chain: T1 sequence (P63104 1-245)
Put plainly: 31P NMR.

“Also recorded” adds a separate entry of the source. Where a SMILES comes first, the peptide text is derived from it. Where no end group is shown, it is not given here. [ ]: non-standard residue; d: D form. pS = N[C@@H](COP(=O)(O)O)C(=O)O

Usually Kd stands for the concentration at which binding is half-saturated. Turning to 14-3-3ζ (from UniProt P63104), the Kd in test [1] was 171 µM; in test [2], 16.7 µM; in test [3], 0.346 µM.

On human 14-3-3ζ protein [4], `CC[C@H](C)[C@H](NC(=O)[C@@H](N)CCCCN)C(=O)N[C@@H](CC(N)=O)C(=O)N[C@@H](CCCNC(=N)N)C(=O)N[C@@H](CO)C(=O)N[C@@H](C)C(=O)N[C@@H](COP(=O)(O)O)C(=O)N[C@@H](CCC(=O)O)C(=O)N1CCC[C@H]1C(=O)N[C@@H](CO)C(=O)N[C@@H](CC(C)C)C(=O)N[C@@H](Cc1c[nH]cn1)C(=O)N[C@@H](CCCNC(=N)N)C(=O)N[C@@H](C)C(=O)N[C@@H](C)C(=O)N[C@@H](Cc1c[nH]cn1)C(=O)O` [KH16p] (H-KINRSA[pS]EPSLHRAAH-OH) came in with a Kd of 17.3 µM.

As to “KH16: control peptide KH16 devoid of phosphorylation at S621 (C-Raf 615–630) (KINRSASEPSLHRAAH; UniProt P04049 615-630, looked up, fragment)”, the “N (stoichiometry)” value with human 14-3-3ζ protein [4] (ITC, 50 μM 14-3-3ζ in cell, 1 mM peptide in syringe, 298 K, 10 mM Na2HPO4, 100 mM NaCl, pH 6.1, single-site binding model) is reported as 1.89 ± 1.45 × 10^4. Further, in the test with human 14-3-3ζ protein [4] (ITC, 298 K, pH 6.1), the “T∆S” value is -411.24 kcal/mol; the “binding affinity (in words)” value is “did not show any appreciable binding affinity; also recorded: relatively weak and the corresponding KD value is in the millimolar range”. The “∆S” value with human 14-3-3ζ protein [4] (ITC, 298 K, pH 6.1, calculated from ΔG=ΔH−TΔS) is on record as -1.38 × 10^3 cal mol^-1 deg^-1. The “∆G” value with human 14-3-3ζ protein [4] (ITC, 298 K, pH 6.1, calculated from ΔG=−RTlnKA) is -1.96 kcal/mol. For the same molecule, the “STD NMR signals with 14-3-3ζ (in words)” value with human 14-3-3ζ protein [5] is “did not show any peaks in both the aromatic and the aliphatic regions”.

In the case of KINRSA[pS]EPSLHRAAH [C-Raf KH16p phosphopeptide 615-630], binding with 14-3-3ζ was put at a Kd of 17.7 µM.

The values above are taken from article PMC4546627, “Biophysical Characterization of Essential Phosphorylation at the Flexible C-Terminal Region of C-Raf with 14-3-3ζ Protein” (PLoS ONE, 2015).
